Results published in article PMC7455186.

Target: FLAG-Aac2 (S. cerevisiae) (UniProt P18239)
Assay: co-IP

Chain of UniProt P18239 (P18239 whole entry): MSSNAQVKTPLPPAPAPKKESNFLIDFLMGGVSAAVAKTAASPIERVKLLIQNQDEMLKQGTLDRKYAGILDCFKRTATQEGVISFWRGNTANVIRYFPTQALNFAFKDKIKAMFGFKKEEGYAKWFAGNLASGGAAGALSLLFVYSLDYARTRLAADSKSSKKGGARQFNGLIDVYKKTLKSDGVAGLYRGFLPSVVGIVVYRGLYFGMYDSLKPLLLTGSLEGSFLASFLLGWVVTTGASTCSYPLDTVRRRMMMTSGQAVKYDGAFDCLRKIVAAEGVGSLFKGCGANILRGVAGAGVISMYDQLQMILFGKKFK

percent decrease of the amount co-immunoprecipitated after BKA, against CATR | Substance
25% | respiratory complex III (from UniProt P07256 27-457; P07257 17-368; P08067 31-215; P00127 1-147)
50% | respiratory complex IV (from UniProt P00401 1-534; P04037 26-155)
